From paper PMC3744951 (Molecular Biology of the Cell, 2013) come the findings set out here.

The experiment deals with GST-GSK3β fusion protein (human, UniProt P49841 1-420). The experiment can be described thus: co-IP.
Chain of GST-GSK3β fusion protein (P49841 whole entry, the tested form may be a part): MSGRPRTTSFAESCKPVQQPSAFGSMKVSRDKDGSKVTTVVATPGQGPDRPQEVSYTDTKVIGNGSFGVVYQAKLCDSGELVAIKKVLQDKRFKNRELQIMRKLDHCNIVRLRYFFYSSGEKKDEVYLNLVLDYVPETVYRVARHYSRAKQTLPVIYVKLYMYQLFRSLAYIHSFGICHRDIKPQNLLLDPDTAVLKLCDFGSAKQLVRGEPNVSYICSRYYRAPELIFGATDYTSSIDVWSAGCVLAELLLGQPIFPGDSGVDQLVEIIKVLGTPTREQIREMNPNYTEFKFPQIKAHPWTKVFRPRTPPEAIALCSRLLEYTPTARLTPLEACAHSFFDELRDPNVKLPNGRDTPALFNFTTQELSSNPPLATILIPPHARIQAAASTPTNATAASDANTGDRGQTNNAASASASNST

B1: GST-FANCL fusion protein (natural protein, human, UniProt Q9NW38 1-375, looked up)
chain: MAVTEASLLRQCPLLLPQNRSKTVYEGFISAQGRDFHLRIVLPEDLQLKNARLLCSWQLRTILSGYHRIVQQRMQHSPDLMSFMMELKMLLEVALKNRQELYALPPPPQFYSSLIEEIGTLGWDKLVYADTCFSTIKLKAEDASGREHLITLKLKAKYPAESPDYFVDFPVPFCASWTPQSSLISIYSQFLAAIESLKAFWDVMDEIDEKTWVLEPEKPPRSATARRIALGNNVSINIEVDPRHPTMLPECFFLGADHVVKPLGIKLSRNIHLWDPENSVLQNLKDVLEIDFPARAILEKSDFTMDCGICYAYQLDGTIPDQVCDNSQCGQPFHQICLYEWLRGLLTSRQSFNIIFGECPYCSKPITLKMSGRKH
B1: the binding result is recorded as “binds”.
